Test results as given in patent US20150093764A1 (BECTON DICKINSON, published 2015).

Key:
[1] = molecular target: T1, human CD88 (complement component 5a receptor 1) (human, UniProt P21730 1-350); experiment: flow cytometry on granulocytes, PE goat anti-rabbit secondary
T1 construct: Native antigen on granulocytes of lysed human whole blood / PBMC preparations, read by flow cytometry; also called C5AR1; native CD88 antigen expressed on granulocytes
T1 chain: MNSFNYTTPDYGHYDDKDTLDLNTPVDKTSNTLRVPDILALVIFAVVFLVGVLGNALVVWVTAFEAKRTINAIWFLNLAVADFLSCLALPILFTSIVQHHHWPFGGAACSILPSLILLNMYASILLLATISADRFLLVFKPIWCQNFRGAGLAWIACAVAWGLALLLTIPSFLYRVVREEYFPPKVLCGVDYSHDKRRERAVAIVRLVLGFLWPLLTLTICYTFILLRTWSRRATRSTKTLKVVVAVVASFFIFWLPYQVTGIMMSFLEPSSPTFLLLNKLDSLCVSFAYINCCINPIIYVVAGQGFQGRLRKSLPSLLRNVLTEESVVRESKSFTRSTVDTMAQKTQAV
Experimental: (§1) For cell surface staining with the parental rabbit anti-human CD88 mAb, PBMCs in PBS containing 2% BSA were mixed with parental rabbit anti-human CD88 mAbs at concentrations of 1 μg, 0.5 μg, 0.25 μg, 0.125 μg and 0.0625 μg as shown in FIG. 3 (A-E) and incubated for 1 hr at 4° C. The cells were washed with PBS containing 2% BSA and incubated at 4° C. for 30 minutes with BD Pharmingen PE Goat Anti-rabbit IgG (Cat No 558146). The cells were washed with PBS containing 2% BSA, and analyzed with a BD FACS Canto II Flow cytometer. Non-specific binding of the secondary anti-rabbit PE-conjugated antibody on the cells alone (primary antibody absent; FIG. 3F) and background autofluorescence by unstained cells (secondary antibody absent; FIG. 3G) served as negative controls for the assay. The % positive signal was detected.

[2] = molecular target: T1, human CD88 (complement component 5a …); experiment: flow cytometry on granulocytes, PE goat anti-rabbit IgG secondary
Experimental: as §1
The binding of the variant rabbit anti-human CD88 mAbs was assayed as for the parental mAb, and the results for four variants are shown in FIGS. 4-7. […] Panels F and G show fluorescence of the negative controls as described for the parental mAb. […] Panels F and G show fluorescence of the negative controls as described for the parental mAb. […] Panels F and G show fluorescence of the negative controls as described for the parental mAb. FIG. 7 (A-E) show the binding at concentrations of 1 ug, 0.5 ug, 0.25 ug, 0.125 ug and 0.0625 ug of a fourth variant mAb having a substitution R116A in the heavy chain and a substitution Y51F in the light chain CDRs. Panels F and G show fluorescence of the negative controls as described for the parental mAb.

B1: parental rabbit anti-human CD88 mAb (hybridoma cell line CD88 clone C85-4124) (antibody, V domains shown)
VH: QSVKESEGGLFKPADTLTLTCTVSGFSVNNKGVMWVRQAPGNGLEWIGSIGISGRVTYATWAKSRSTITRDTNLNTVTLKVTSLTVADTATYFCRIGSNIWGPGTLVTVSS
VL: ELVLTQTPSSVSAAVGGTVTINCQSSQSVYNNNLLAWYQQKPGQPPKLLIYQASTLDSGVPSRFKGSGTGTHFTLTISDLECDDAATYYCQGGYNGNGIAAFGGGTEVVVDG
notes: Rabbit monoclonal antibody
B1: binds [1].

B2: Variant 1 rabbit anti-human CD88 mAb, R116A in heavy chain CDR-H3 (antibody, V domains shown)
VH: QSVKESEGGLFKPADTLTLTCTVSGFSVNNKGVMWVRQAPGNGLEWIGSIGISGRVTYATWAKSRSTITRDTNLNTVTLKVTSLTVADTATYFCAIGSNIWGPGTLVTVSS
VL: ELVLTQTPSSVSAAVGGTVTINCQSSQSVYNNNLLAWYQQKPGQPPKLLIYQASTLDSGVPSRFKGSGTGTHFTLTISDLECDDAATYYCQGGYNGNGIAAFGGGTEVVVDG
notes: No signal peptide limits are stated; also called first variant
B2: no binding [2].

B3: Variant 2 rabbit anti-human CD88 mAb, Y51A in light chain CDR-L1 (antibody, V domains shown)
VH: QSVKESEGGLFKPADTLTLTCTVSGFSVNNKGVMWVRQAPGNGLEWIGSIGISGRVTYATWAKSRSTITRDTNLNTVTLKVTSLTVADTATYFCRIGSNIWGPGTLVTVSS
VL: ELVLTQTPSSVSAAVGGTVTINCQSSQSVANNNLLAWYQQKPGQPPKLLIYQASTLDSGVPSRFKGSGTGTHFTLTISDLECDDAATYYCQGGYNGNGIAAFGGGTEVVVDG
notes: Recombinant, made in 293F cells; also called second variant
B3: no binding [2].

B4: Variant 3 rabbit anti-human CD88 mAb, R116A in heavy chain and Y51A in light chain (antibody, V domains shown)
VH: QSVKESEGGLFKPADTLTLTCTVSGFSVNNKGVMWVRQAPGNGLEWIGSIGISGRVTYATWAKSRSTITRDTNLNTVTLKVTSLTVADTATYFCAIGSNIWGPGTLVTVSS
VL: ELVLTQTPSSVSAAVGGTVTINCQSSQSVANNNLLAWYQQKPGQPPKLLIYQASTLDSGVPSRFKGSGTGTHFTLTISDLECDDAATYYCQGGYNGNGIAAFGGGTEVVVDG
notes: Recombinant double mutant, made in 293F cells; also called third variant
B4: no binding [2].

B5: Variant 4 rabbit anti-human CD88 mAb, R116A in heavy chain and Y51F in light chain (antibody, V domains shown)
VH: QSVKESEGGLFKPADTLTLTCTVSGFSVNNKGVMWVRQAPGNGLEWIGSIGISGRVTYATWAKSRSTITRDTNLNTVTLKVTSLTVADTATYFCAIGSNIWGPGTLVTVSS
VL: ELVLTQTPSSVSAAVGGTVTINCQSSQSVFNNNLLAWYQQKPGQPPKLLIYQASTLDSGVPSRFKGSGTGTHFTLTISDLECDDAATYYCQGGYNGNGIAAFGGGTEVVVDG
notes: Recombinant double mutant, made in 293F cells; also called fourth variant
B5: no binding [2].
